In paper PMC5050335 one finds binding data, which are given here for 5 sequences.

Data set [1] addresses T1, Cap0037 (Clostridium acetobutylicum ATCC 824) (UniProt Q97TR1).
T1 sequence: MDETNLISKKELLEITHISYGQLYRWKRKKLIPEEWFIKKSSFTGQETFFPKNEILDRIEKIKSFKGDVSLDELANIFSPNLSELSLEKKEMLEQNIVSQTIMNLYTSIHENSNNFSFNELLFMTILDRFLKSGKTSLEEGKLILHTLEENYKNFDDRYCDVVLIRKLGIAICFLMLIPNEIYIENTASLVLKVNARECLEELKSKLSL
Put plainly: DNase I footprinting. The settings on record: EMSA: 20 ul with 2 ul buffer (stock 200 mM Tris, 500 mM Na glutamate, 100 mM MgCl2, 63.6 mM EDTA, 0.5% NP-40, 50% glycerol), 1 ug poly(dI-dC), 20 min room …. In general terms: Mobility shift assays separate free from complexed probe on a gel.

Data set [2] deals with T1, Cap0037 (Clostridium acetobutylicum ATCC 824). Put plainly: EMSA. The settings on record: EMSA: 20 ul with 2 ul buffer (stock 200 mM Tris, 500 mM Na glutamate, 100 mM MgCl2, 63.6 mM EDTA, 0.5% NP-40, 50% glycerol), 1 ug poly(dI-dC), 20 min room ….

On to “ACAGAATTCCTCAATTCTATTTATGCTCCTATAAAATTTTATAATATAGGAAAACTGCTAAATGTAAATTATACGTTTACATTTAGCAGTTTATTTTAAACCTTCATATTTTTCTAAATATACTGATAATTCCTAAATATATATTATTACGCCAAAATATTAGATACCATTTTGTAAAAGTTGCTATTTACATTTAAATACACAGCTGTTATATTTTTGACCTATGCTTTTTATTGGAT (double strand) [probe sol (sol promoter, footprint)]”, for which the binding entry in data set [1] was “binds”.

Regarding “ACAGAATTCGCAGAATTTTTAGGAAGTGTACTTTTATTTTCGAAAGCTAGTAGAAAAAATTAATATATGGTGTAAAAATTTACTTAAAAAAACAATATGTGTTATAATGTAAATATAAATAAATAGGACTAGAGGCGATTTATAATGTGAAGATAAAGTATGTTAGAAAAGCTAAACATTATTAAATTTAGGAAGGTGACTTTTATGTTAAAGGATGAAGTAATTAAACAAATTAGCACGCCATTAACTTCGCCGAT (double strand) [probe adcStart (adc transcription start)]”, the binding entry in data set [1] is recorded as “binds”.

In the case of “AGAGAATTCCCATTTTACCTTCTATTCTAACTAAAAGGTATATTGATACAGCTATGGGAAAGCCAACATTGCCTATAAGAGACACTATATCGCCTGAATTCATAAAAACACCTCCACATAAGTTTATATAAATCTATTATGCAGAATTTTTAGGAAGTGTACTTTTATTTTCGAAAGCTAGTAGAAAAAATTAATATATGGTGTAAAAATTTACTTAAAAAAACAATATGTGTTATAATGGAT (double strand) [probe 144 (adc promoter, upstream site)]”, the binding result in data set [1] was “binds”.

On to “CTGCATAATATAAAATGCAGATTTTTTTAAACAAATATTGATAAAGATTATCAAATGATATATAATATTGTTAGTTAATAAATTAACAAAGTTTTATATTTTAAATACAATGTTGCATAAGACAAGGTAATTGAACTAATACTATACTAGTAATTGGAGGGGATAATATATGAAAAAGAATACTAAAATTTCAGTAATCGGAGCAGGATTTGT (double strand) [ldhA promoter]”, for which the binding entry in data set [2] is “no binding”.

As to “GCATAGGTCAAAAATATAACAGCTGTGTATTTAAATGTAAATAGCAACTTTTACAAAATGGTATCTAATATTTTGGCGTAATAATATATATTTAGGAATTATCAGTATATTTAGAAAAATATGAAGGTTTAAAATAAACTGCTAAATGTAAACGTATAATTTACATTTAGCAGTTTTCCTATATTATAAAATTTTATAGGAGCATAAATAGAATTGAGT (double strand) [sol probe (EMSA)]”, in data set [2], the binding entry is “binds”.
